According to paper PMC3929086, “Targeted manipulation of the sortilin–progranulin axis rescues progranulin haploinsufficiency” (Human Molecular Genetics, 2013):
“Also recorded” adds a separate entry of the source.

Experiments:
neutrophil elastase = assay: Neutrophil elastase digestion of synthetic PGRN peptide, MALDI-MS; assay type: in vitro ADME
Experimental: An enzymatic reaction was set up with 7 μg of custom-synthesized PGRN(584–593) peptide (Mayo peptide synthesis core) and 20 μg of NE in a 25 μl reaction at 37°C. Every 10 min, 4 μl of the mixture was collected and diluted 10 times in a solvent mixture (50% acetonitrile:50% water:0.1% acetic acid) until 1 h had passed. For MALDI-MS analysis, 1 μl of the diluted reaction mixture was dried on a MS gold chip and then layered with a concentrated sinipinic acid matrix on top for crystallization. Afterwards, the samples were analyzed by the Bio-Rad MALDI-MS system.

PGRN-SORT1 interaction = assay: PGRN-SORT1 co-immunoprecipitation; assay type: biochemical, human; conditions: HEK293 lysate with Flag-SORT1, 100 nM rPGRN, peptide at 10 M (sic; method 20 μM), densitometry
Experimental: HEK293T cells were transfected empty vector or pCMV-SORT1-Flag vector for 48 h. Then, cells were lysed by using Co-IP buffer. Pre-incubation was performed with 300 μg of lysate protein mixed with 20 μM NTS, human PGRN(588–593) peptide or mouse PGRN(584–589) peptide for 1 h. Then, rPGRN (100 nM) was added into the protein G beads pre-cleared supernatant and mixed for 30 min. Next, anti-Flag M2 agarose (Sigma) was added and mixed for another 4 h. The agarose was collected by centrifugation at 1000 g for 3 min and washed with Co-IP buffer six times. Captured protein was eluted from the beads using loading buffer and analyzed by western blot.

[1] = tested on: SORT1-mediated PGRN endocytosis; assay: Quantitative DyL-rPGRN endocytosis assay in COS-1^SORT1 cells; assay type: cell-based, human; conditions: 1 h; for inhibition of full-length PGRN endocytosis: COS-1^SORT1, ligand 10 μM (Fig. 4 legend), added simultaneously with DyL-rPGRN, vs vehicle
Experimental: COS-1 cells seeded on a 96-well black plate 1 day before were transfected with pCMV-SORT1 vector. After 24 h, cells were treated with fluorescence-tagged rPGRN (DyL-rPGRN) pre-labeled by DyLight™ 594 antibody labeling kit (Thermo Scientific). The DyL-rPGRN was diluted in OptiMEM to tested concentrations and incubated with the cells for 1 h for endocytosis. The cells were then washed with cold PBS and then fixed by 4% paraformaldehyde. After washing twice, each well was filled with PBS prior scanning. The total PGRN fluorescent signal from the cells was obtained by a plate reader with 593/618 nm (Ex/Em) settings. The endocytosis signal was normalized by the total nuclei signal obtained by staining with a Hoechst 33342 dye. Baseline endocytosis signal was defined as a signal from medium-only-treated cells, whereas the 100% endocytosis level was set as the signal obtained from cells treated with 50 nM DyL-rPGRN. For testing SORT1 ligands, DyL-rPGRN and the peptide were added simultaneously to the cells. For testing of PGRN binders, the binder was pre-incubated with DyL-rPGRN for 1 h before adding to the cells. For qualitative analysis, images from each well were captured by BD Pathway 855 system using a 20× magnification setting.

SORT1–PGRN interaction = assay: MSD-based SORT1–PGRN interaction assay; assay type: biochemical, human; conditions: 200 nM tagged rPGRN, SORT1-Flag captured on MSD plate
Experimental: M17 cells were transfected with pCMV-SORT1-Flag for 48 h. Then, the cell lysate was harvested by the same method used in the co-immunoprecipitation assay. Expression of SORT1-Flag protein was confirmed by western blot. MSD plate was first coated with the Flag M2 antibody (Sigma). Following an overnight incubation at 4°C, the plate was blocked for 2 h and then washed prior to addition of 5 µg/well of lysate protein containing SORT1-Flag protein. After overnight incubation at 4°C, it was then washed and added with 200 nM of either N-6His- or C-6His-tagged rPGRN pre-incubated with either vehicle, 20 µM or 200 µM of BVFP, for 30 min at room temperature. Then plate was then incubated for 2 h, washed and incubated with a mixture of PCDGF antibody and a SULFO-TAG-labeled anti-rabbit IgG antibody for 2 h. After final wash, the plate was read by the MSD Sector Imager 2400.

SORT1 [2] = assay: PGRN endocytosis in M17 cells overexpressing SORT1; assay type: cell-based; conditions: for endocytosis of rPGRN: M17^SORT1 cells, rPGRN 500 ng/ml, 60 min, immunofluorescence
Experimental: M17 cells seeded in 12-well culture plates (western blot) or on glass coverslips in 24-well culture plate (immunofluorescence) were transfected with pEGFP-N1 (Clontech) or pCMV-SORT1 (OriGene) vectors. Next day, the cells were changed into serum-free medium 1 h before addition of rPGRN (500 ng/ml) and treated for 60 min. The cells were then put on ice and washed with cold PBS. For western blot, cells were lysed in cold M-Per protein extraction buffer followed by standard procedures as mentioned. For immunofluorescence analyses, cells were fixed in 4% paraformaldehyde solution followed by PBS washes. The cells were then incubated in blocking buffer (PBS, 5% goat serum, 0.1% saponin) for 1 h at room temperature followed by incubation in primary antibody overnight at 4°C. The cells were incubated with secondary antibodies (1:1000) for 1 h at room temperature. The coverslips were then mounted onto slides and waited overnight before analysis. Image analysis was performed by Zeiss LSM 510 META confocal microscope using 60× magnification setting.

SORT1 [3] = assay: SORT1 protein level in M17 cells (western blot); assay type: cell-based; conditions: M17, rPGRN at 50 ng/ml, 1, 2 and 4 hours
Experimental: PGRN, SORT1, GFP, GAPDH and β-actin proteins were analyzed using 10% Tris–glycine polyacrylamide gel by SDS–PAGE. After electrophoresis, proteins on gel were transblotted to PVDF membranes followed by standard immunoblotting protocols.

[4] = tested on: PGRN endocytosis in SORT1^KO-hESCs; assay: DyL-rPGRN endocytosis in SORT1^KO-hESCs; assay type: cell-based, human; conditions: SORT1^KO-hESC compared with WT-hESC
Description: To determine whether BVFP, when bound to PGRN, disrupts full-length PGRN and SORT1 binding, we devised a SORT1-dependent rPGRN precipitation assay utilizing the Meso-Scale Discovery (MSD) system (Supplementary Material, Fig. S4A and B). […] To include a higher-affinity PGRN588–593 motif binder as a positive control, an antibody targeting the motif, PGRN-CT antibody, was made for validating the approach (Fig. 5F). […] First, we found SORT1 was abundantly expressed in the wild-type hESCs (Fig. 5H). Similar to the results from COS-1^SORT1 cells, BVFP and PGRN-CT antibody inhibited endocytosis of DyL-rPGRN by 22 and 39%, respectively, under the same experimental conditions in wild-type hESCs (Fig. 5I left).
COS-1 cells seeded on a 96-well black plate 1 day before were transfected with pCMV-SORT1 vector. After 24 h, cells were treated with fluorescence-tagged rPGRN (DyL-rPGRN) pre-labeled by DyLight™ 594 antibody labeling kit (Thermo Scientific). The DyL-rPGRN was diluted in OptiMEM to tested concentrations and incubated with the cells for 1 h for endocytosis. The cells were then washed with cold PBS and then fixed by 4% paraformaldehyde. After washing twice, each well was filled with PBS prior scanning. The total PGRN fluorescent signal from the cells was obtained by a plate reader with 593/618 nm (Ex/Em) settings. […]

## PGRN574–593 peptide: synthetic PGRN574–593 peptide, molecular weight 2430 Da
Neutrophil elastase; 7 μg peptide, 20 μg NE, 25 μl, 37°C, sampled every 10 min to 1 h
  cleavage by neutrophil elastase: enzymatically cleaved by recombinant elastase (EL) in a time-dependent manner
Neutrophil elastase; product 1806 Da from 2430 Da
  cleavage site / residues removed by elastase: between residues Ala-588 and Leu-589; also recorded: last five residues were removed by EL

## VPRPLL [mouse Pgrn584–589, mouse ortholog peptide of PGRN588–593, -VPRPLL]
PGRN-SORT1 interaction
  inhibition of PGRN–SORT1 co-immunoprecipitation: significantly reduced the amount of rPGRN
[1]
  inhibition of full-length PGRN endocytosis: 73%

## ALRQLL [human PGRN588–593, custom-synthesized C-terminal peptide of human PGRN, -ALRQLL]
PGRN-SORT1 interaction
  inhibition of PGRN–SORT1 co-immunoprecipitation: significantly reduced the amount of rPGRN
[1]
  inhibition of full-length PGRN endocytosis: 93%

## ELYENKPRRPYIL [NTS, neurotensin, reference compound]
PGRN-SORT1 interaction
  inhibition of PGRN–SORT1 co-immunoprecipitation: significantly reduced the amount of rPGRN
[1]
  inhibition of full-length PGRN endocytosis: 90%

## N-rP: human recombinant PGRN with 6-histidine tag on the amino-terminus
SORT1–PGRN interaction
  rPGRN binding to immobilized SORT1: specific binding signal
SORT1 [2]; M17 cells expressing titrated amounts of SORT1, western blot
  endocytosis of tagged rPGRN: dependently endocytosed

B1: rPGRN: wild-type human recombinant PGRN protein from stable HEK293 cells (protein)
chain: TRCPDGQFCPVACCLDPGGASYSCCRPLLDKWPTTLSRHLGGPCQVDAHCSAGHSCIFTVSGTSSCCPFPEAVACGDGHHCCPRGFHCSADGRSCFQRSGNNSVGAIQCPDSQFECPDFSTCCVMVDGSWGCCPMPQASCCEDRVHCCPHGAFCDLVHTRCITPTGTHPLAKKLPAQRTNRAVALSSSVMCPDARSRCPDGSTCCELPSGKYGCCPMPNATCCSDHLHCCPQDTVCDLIQSKCLSKENATTDLLTKLPAHTVGDVKCDMEVSCPDGYTCCRLQSGAWGCCPFTQAVCCEDHIHCCPAGFTCDTQKGTCEQGPHQVPWMEKAPAHLSLPDPQALKRDVPCDNVSSCPSSDTCCQLTSGEWGCCPIPEAVCCSDHQHCCPQGYTCVAEGQCQRGSEIVAGLEKMPARRASLSHPRDIGCDQHTSCPVGQTCCPSLGGSWACCQLPHAVCCEDRQHCCPAGYTCNVKARSCEKEVVSAQPATFLARSPHVGVKDVECGEGHFCHDNQTCCRDNRQGWACCPYRQGVCCADRRHCCPAGFRCAARGTKCLRREAPRWDAPLRDPALRQLL
modifications: left off: His6, N-terminal, state not stated
SORT1 [3]
  SORT1 level after rPGRN treatment: No significant changes in SORT1
SORT1 [2]
  endocytosis of rPGRN: significantly endocytosed
SORT1 [2]; M17 cells overexpressing SORT1
  subcellular localization after endocytosis: endolysosomal localization

B2: DyL-rPGRN: DyLight™-594 fluorescence-labeled rPGRN (conjugate, UniProt P28799 1-593, looked up)
chain: MWTLVSWVALTAGLVAGTRCPDGQFCPVACCLDPGGASYSCCRPLLDKWPTTLSRHLGGPCQVDAHCSAGHSCIFTVSGTSSCCPFPEAVACGDGHHCCPRGFHCSADGRSCFQRSGNNSVGAIQCPDSQFECPDFSTCCVMVDGSWGCCPMPQASCCEDRVHCCPHGAFCDLVHTRCITPTGTHPLAKKLPAQRTNRAVALSSSVMCPDARSRCPDGSTCCELPSGKYGCCPMPNATCCSDHLHCCPQDTVCDLIQSKCLSKENATTDLLTKLPAHTVGDVKCDMEVSCPDGYTCCRLQSGAWGCCPFTQAVCCEDHIHCCPAGFTCDTQKGTCEQGPHQVPWMEKAPAHLSLPDPQALKRDVPCDNVSSCPSSDTCCQLTSGEWGCCPIPEAVCCSDHQHCCPQGYTCVAEGQCQRGSEIVAGLEKMPARRASLSHPRDIGCDQHTSCPVGQTCCPSLGGSWACCQLPHAVCCEDRQHCCPAGYTCNVKARSCEKEVVSAQPATFLARSPHVGVKDVECGEGHFCHDNQTCCRDNRQGWACCPYRQGVCCADRRHCCPAGFRCAARGTKCLRREAPRWDAPLRDPALRQLL
modifications: full-length DyLight 594 label
notes: DyLight™-594 fluorescence-labeled rPGRN
[4]
  DyL-rPGRN endocytosis signal: significantly lower signal compared with the WT-hESCs
[1]; COS-1^SORT1, DyL-rPGRN 0 to 50 nM, 593/618 nm
  DyL-rPGRN endocytosis response: linear, non-saturated endocytosis response

B3: rPGRN1-588: recombinant carboxyl-terminal-truncated PGRN 1–588 (protein)
chain: TRCPDGQFCPVACCLDPGGASYSCCRPLLDKWPTTLSRHLGGPCQVDAHCSAGHSCIFTVSGTSSCCPFPEAVACGDGHHCCPRGFHCSADGRSCFQRSGNNSVGAIQCPDSQFECPDFSTCCVMVDGSWGCCPMPQASCCEDRVHCCPHGAFCDLVHTRCITPTGTHPLAKKLPAQRTNRAVALSSSVMCPDARSRCPDGSTCCELPSGKYGCCPMPNATCCSDHLHCCPQDTVCDLIQSKCLSKENATTDLLTKLPAHTVGDVKCDMEVSCPDGYTCCRLQSGAWGCCPFTQAVCCEDHIHCCPAGFTCDTQKGTCEQGPHQVPWMEKAPAHLSLPDPQALKRDVPCDNVSSCPSSDTCCQLTSGEWGCCPIPEAVCCSDHQHCCPQGYTCVAEGQCQRGSEIVAGLEKMPARRASLSHPRDIGCDQHTSCPVGQTCCPSLGGSWACCQLPHAVCCEDRQHCCPAGYTCNVKARSCEKEVVSAQPATFLARSPHVGVKDVECGEGHFCHDNQTCCRDNRQGWACCPYRQGVCCADRRHCCPAGFRCAARGTKCLRREAPRWDAPLRDPA
modifications: left off: His6, N-terminal, state not stated
SORT1 [2]
  endocytosis of rPGRN: failed to be endocytosed
